The record followed here is patent publication US20110136737A1.

The first experiment deals with T1, GIP receptor (GIP RBA, RIN), P43219.
T1 chain: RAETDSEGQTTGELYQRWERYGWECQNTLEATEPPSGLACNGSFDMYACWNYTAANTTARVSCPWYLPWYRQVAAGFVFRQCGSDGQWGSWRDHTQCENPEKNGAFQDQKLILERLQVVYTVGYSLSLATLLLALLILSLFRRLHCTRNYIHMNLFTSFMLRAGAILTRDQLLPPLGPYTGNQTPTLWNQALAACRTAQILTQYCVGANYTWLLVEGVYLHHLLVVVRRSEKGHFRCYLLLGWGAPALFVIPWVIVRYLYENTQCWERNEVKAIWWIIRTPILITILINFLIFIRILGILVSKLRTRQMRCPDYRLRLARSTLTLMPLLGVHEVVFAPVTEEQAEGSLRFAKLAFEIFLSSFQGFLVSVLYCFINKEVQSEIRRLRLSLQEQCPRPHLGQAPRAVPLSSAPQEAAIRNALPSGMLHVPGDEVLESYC
In words: cell-based or functional assay.
GYAEGTFISDYSIAMDKIHQQDFVNWLLAQKPSSGAPPPS (modifications not checked) [0601GIP4178]: the Cyclase turned out to be 96.

Regarding YAEGTFISEYSIAMDKIHQQDFVNWLLAQKPSSGAPPPS (modifications not checked) [0601GIP4151], the Cyclase was found to be 10000.

Regarding YAEGTFISDYSIAMDKIHQQDFVNWLLAQAPSSGAPPPS (modifications not checked) [0601GIP4165], the Cyclase turned out to be 40.

Another experiment addresses T2, human GIP receptor (human), P48546.
T2 chain: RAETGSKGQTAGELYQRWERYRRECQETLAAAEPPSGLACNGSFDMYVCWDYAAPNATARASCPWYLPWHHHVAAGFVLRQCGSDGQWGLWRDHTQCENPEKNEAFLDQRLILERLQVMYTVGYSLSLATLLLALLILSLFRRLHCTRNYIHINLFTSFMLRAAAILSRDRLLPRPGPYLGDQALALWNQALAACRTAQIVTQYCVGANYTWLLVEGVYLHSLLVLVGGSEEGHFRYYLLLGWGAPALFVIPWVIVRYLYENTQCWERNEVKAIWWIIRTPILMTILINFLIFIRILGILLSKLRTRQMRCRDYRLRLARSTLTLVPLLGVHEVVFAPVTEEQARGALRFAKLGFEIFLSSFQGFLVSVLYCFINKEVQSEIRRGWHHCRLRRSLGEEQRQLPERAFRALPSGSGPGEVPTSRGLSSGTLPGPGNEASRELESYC
In words: 125I-GIP displacement by 10 nM analog, HEK-GIPR membranes.
As for YAEGTFISDYSIAMDKIHQQDFVNWLLAQKPKGKGKS (modifications not checked) [0601GIP4700], the % Inh at 10 nM was determined as 86.6%. The molecule YAEGFISDYSIAMDKIHQQDFVNWLLAQKPSPKKIRYS (modifications not checked) [0601GIP4820] showed a % Inh at 10 nM of 46%. Molecule YAEGTFISDYSIAMDKIHQQDFVNWLLAQKPSKEIIH (modifications not checked) [0601GIP4710] came in with a % Inh at 10 nM of 79.2%. YAEGTFISDYSIAMDKIHQQDFVNWLLAQKPSKEIIS (modifications not checked) [0601GIP4765]: the % Inh at 10 nM is 67%.

Regarding LYAEGTFISDYSIAMDKIHQQDFVNWLLAQKPKKIRYS (modifications not checked) [0601GIP4798], the % Inh at 10 nM was determined as 82.3%. The molecule LYAEGTFISDYSIALDKIAQQEFVNWLLAQKPKKIRYS (modifications not checked) [0601GIP4802] showed a % Inh at 10 nM of 87.3%. IYAEGTFISDYSIAMDKIHQQDFVNWLLAQKPKKIRYS (modifications not checked) [0601GIP4801] gave a % Inh at 10 nM of 88.8%. Molecule LYAEGTFISDYSIALDKIAQQEFVNWLLAQKPKKIRYS (modifications not checked) [0601GIP4803] displayed a % Inh at 10 nM of 89.9%. With YAEGTFISDYSIAMDKIHQQDFVNWLLAQKPSPKKIRYS (modifications not checked) [0601GIP4823], the % Inh at 10 nM was determined as 94.1%.

Consider YAEGTFISDYSIAMDKIHQQDFVNWLLAQKGFVLWKGIQ (modifications not checked) [0601GIP4619], for which the % Inh at 10 nM was found to be 84.6%. The same measure, in the same setting: next, YAEGTFISDYSIALDKIHQQDFVNWLLAQKPKKIRYS (modifications not checked) [0601GIP4807]: 96.1%; YAEGTFISDYSIALDKIRQQEFVNWLLAQKPKKIRYS (modifications not checked) [0601GIP4539]: 98.7%; YAEGTFISDYSIAMDKIHQQDFVNWLLAQKPKSARPS (modifications not checked) [0601GIP4821]: 93.5%.

In the case of YAEGTFISDYSIAMDKIHQQDFVNWLLAQKAKKIRYS (modifications not checked) [0601GIP4814], the % Inh at 10 nM worked out at 88%. Still for that read-out and setting: as for YAEGTFISDYSIAMDKIHQQDFVNWLEAQKPKKIRYS (modifications not checked) [0601GIP4771], the figure is 17.8%; as for YSEGTFISDYSIAMDKIHQQDFVNWLLAQKPKKIRYS (modifications not checked) [0601GIP4538], 94.2%; as for YAEGTFISDYSIAMDKIHQQDFVNWLLAQKPKAIRYS (modifications not checked) [0601GIP4816], 87.3%. The same measure, in the same setting: as for HAEGTFISDYSIAMDKIHQQDFVNWLLAQKPKKIRYS (modifications not checked) [0601GIP4840], the figure is 44.1%; as for YAEGTFISDYSIAMDKIHQQDFVNWLLAQKPKKIRYS (modifications not checked) [0601GIP4762], 79.1%; as for YAEGTFISDYSIAMDKIHQQDFVNWLLAQKPAKIRYS (modifications not checked) [0601GIP4815], 89%. The same measure, in the same setting: next, YAEGTFISDYSIAMDKIHQQDFVNWLLAQKPKKIRYS (modifications not checked) [0601GIP4233]: 89%. In turn, HGEGTFISDYSIALDKIAQQEFVNWLLAQKPKKIRYS (modifications not checked) [0601GIP4841] registered a % Inh at 10 nM of 56.6%. Still for that read-out and setting: as for YAEGTFISDYSIAMDKIHQQDFVNPLLAQKPKKIRYS (modifications not checked) [0601GIP4770], the figure is 10.8%; as for YAEGTFISDYSIAMDKIHQQDFVNWLLAQKPKKIRYA (modifications not checked) [0601GIP4819], 80.4%. The same measure, in the same setting: as for YAEGTFISDYSIAMDKIHQQDFVPWLLAQKPKKIRYS (modifications not checked) [0601GIP4768], the figure is 17.9%; as for YAEGTFISDYSIALDKIAQQEFVNWLLAQKPKKIRYS (modifications not checked) [0601GIP4631], 79%; as for YSDGTFISDYSIAMDKIHQQDFVNWLLAQKPKKIRYS (modifications not checked) [0601GIP4386], 93.6%. The same measure, in the same setting: next, HGEGTFISDYSIAMDKIHQQDFVNWLLAQKPKKIRYS (modifications not checked) [0601GIP4839]: 23.9%. Molecule YAEGTFISDYSIAMDKIHQQDFVNWLLAQKPKKLKPS (modifications not checked) [0601GIP4822] returned a % Inh at 10 nM of 95.4%. The same measure, in the same setting: next, YAEGTFISDYSIALDKIRQQDFVEWLLAQKPKKIRYS (modifications not checked) [0601GIP4540]: 92.2%; YAEGTFISDYSIAMDKIHQQDFVNELLAQKPKKIRYS (modifications not checked) [0601GIP4769]: 42.8%; YADGTFISDYSIAMDKIHQQDFVNWLLAQKPKKIRYS (modifications not checked) [0601GIP4390]: 90.3%. For HGEGTFISDYSIALDKIRQQEFVNWLLAQKPKKIRYS (modifications not checked) [0601GIP4842], the % Inh at 10 nM is 40.8%.

The target in a further experiment is T1, GIP receptor (GIP RBA, RIN), P43219. The experiment can be described thus: cell-based or functional assay. This is another data set of the same source.
Take GYAEGTFISDYSIAMDKIHQQDFVNWLLAQKPSSGAPPPS (modifications not checked) [0601GIP4178]: the Cyclase is 36.2. Same read-out and setting: next, GYAEGTFISDYSIAMDKIRQQDFVNWLLAQKPSSGAPPPS (modifications not checked) [0601GIP4293]: 20.
